The values below come from patent publication US20030211466.

Where two headings read alike, the source gives them in different places.

The data set concerns HuB (Hel-N2, ELAV-like), Q12926-2. To be noted: increase in HuB RNP on differentiation.
Sequence of HuB (Hel-N2, ELAV-like), Q12926-2 (Q12926 other isoform, or with tags, fused parts or gaps): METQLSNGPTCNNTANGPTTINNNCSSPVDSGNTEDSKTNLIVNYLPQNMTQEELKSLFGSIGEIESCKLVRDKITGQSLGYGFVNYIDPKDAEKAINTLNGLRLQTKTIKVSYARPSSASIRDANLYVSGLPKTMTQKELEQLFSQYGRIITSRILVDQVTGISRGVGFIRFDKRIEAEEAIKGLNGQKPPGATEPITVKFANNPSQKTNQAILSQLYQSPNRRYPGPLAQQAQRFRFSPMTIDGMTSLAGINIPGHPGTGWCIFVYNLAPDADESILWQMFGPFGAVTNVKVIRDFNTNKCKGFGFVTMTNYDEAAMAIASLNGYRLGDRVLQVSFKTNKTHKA

As for MBNL mRNA, the binding signal (total RNA +1.42) was determined as 8.95 fold. In turn, CACN (calcium channel beta 3) mRNA returned a binding signal (total RNA +1.31) of 14.5 fold. Take CELSR mRNA: under “total RNA -1.33”, the binding signal is 9.41 fold.
